One assay deals with T1, mouse CD47 (mouse, UniProt Q61735 19-303).
T1 construct: whole, on cells; also called CD47 on mouse RBCs; CD47 on 4T1 cells
T1 sequence (looked up): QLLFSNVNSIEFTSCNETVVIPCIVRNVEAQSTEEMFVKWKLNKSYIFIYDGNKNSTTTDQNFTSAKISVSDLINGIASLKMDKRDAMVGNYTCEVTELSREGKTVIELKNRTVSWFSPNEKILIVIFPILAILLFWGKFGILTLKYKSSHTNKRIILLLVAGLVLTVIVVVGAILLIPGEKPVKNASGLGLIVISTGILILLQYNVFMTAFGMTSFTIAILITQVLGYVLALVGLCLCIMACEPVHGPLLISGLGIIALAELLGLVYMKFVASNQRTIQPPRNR
The assay can be described thus: FACS, mouse RBCs, supernatant 10 ng/ml. The protocol: (§1) RBCs are incubated for 60 minutes on ice with tissue culture supernatants containing the secreted humanized antibodies at a concentration of 10 ng/ml in a solution of phosphate buffered saline, pH 7.2, 2.5 mM EDTA (PBS+E), or with various concentrations of purified antibodies. Cells are then washed with cold PBS+E, and incubated for an additional hour on ice with FITC labeled donkey anti-human antibody (Jackson Immuno Research Labs, West Grove, Pa.; Catalogue #709-096-149) in PBS+E. Cells are then washed with PBS+E, and antibody binding is analyzed using a BD FACSAria Cell Sorter (Becton Dickinson) or a C6 Accuri Flow Cytometer (Becton Dickinson). Antibody binding is quantitated by comparison of mean fluorescence values relative to that of chimeric antibody >VxP037-01LC (SEQ ID NO:7))/>VxP037-01HC (SEQ ID NO:57). The mean fluorescence value for each antibody is divided by the mean fluorescence value for the chimeric antibody.
On the technique in general: Flow cytometry measures light scatter and fluorescence of single cells or particles in a stream.

For the next assay, the target named is T2, rat CD47 (rat, UniProt P97829 19-303).
T2 construct: whole, on cells; also called CD47 on rat RBCs
T2 sequence (looked up): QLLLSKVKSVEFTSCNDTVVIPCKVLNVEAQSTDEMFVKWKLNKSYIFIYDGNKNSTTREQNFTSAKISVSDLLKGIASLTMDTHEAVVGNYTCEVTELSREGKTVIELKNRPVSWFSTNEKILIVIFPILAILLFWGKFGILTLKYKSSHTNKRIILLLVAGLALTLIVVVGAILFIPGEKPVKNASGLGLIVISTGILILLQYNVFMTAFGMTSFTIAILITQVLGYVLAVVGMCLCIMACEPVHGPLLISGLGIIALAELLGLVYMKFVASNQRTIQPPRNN
The assay can be described thus: FACS, rat RBCs, supernatant 10 ng/ml. The procedure:
as §1

A further assay concerns the target T3, dog CD47 (dog, UniProt A0A8I3PM61 19-310).
T3 construct: also called CD47 on dog RBCs
T3 sequence: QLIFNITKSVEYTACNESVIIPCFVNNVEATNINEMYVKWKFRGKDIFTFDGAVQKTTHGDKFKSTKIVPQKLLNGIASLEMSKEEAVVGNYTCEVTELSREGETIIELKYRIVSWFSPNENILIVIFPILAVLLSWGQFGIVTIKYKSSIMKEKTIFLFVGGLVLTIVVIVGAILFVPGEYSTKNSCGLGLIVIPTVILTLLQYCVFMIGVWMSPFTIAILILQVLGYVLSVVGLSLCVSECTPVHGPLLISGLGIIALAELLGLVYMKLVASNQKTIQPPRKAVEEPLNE
The assay can be described thus: FACS, dog RBCs, supernatant 10 ng/ml. The protocol:
as §1

A further assay addresses T4, pig CD47 (pig, UniProt Q9GKE8 19-303).
T4 construct: whole, on cells; also called CD47 on porcine RBCs
T4 sequence (looked up): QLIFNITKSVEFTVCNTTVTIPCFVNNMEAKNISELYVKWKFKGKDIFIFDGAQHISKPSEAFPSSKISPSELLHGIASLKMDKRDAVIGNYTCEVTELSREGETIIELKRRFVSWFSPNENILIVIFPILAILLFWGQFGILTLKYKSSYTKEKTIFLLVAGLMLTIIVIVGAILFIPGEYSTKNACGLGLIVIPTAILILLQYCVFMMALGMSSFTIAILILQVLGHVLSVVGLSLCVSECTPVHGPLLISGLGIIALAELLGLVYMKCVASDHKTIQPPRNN
The assay can be described thus: FACS, pig RBCs, supernatant 10 ng/ml. The procedure:
as §1

The next assay concerns the target T5, human CD47 (human, UniProt Q08722 19-323).
T5 construct: whole, on cells; also called CD47 on human RBCs; CD47 on OV10 cells
The assay can be described thus: FACS, human RBCs, supernatant 10 ng/ml. The protocol: as §1

T5 sequence (Q08722 19-323): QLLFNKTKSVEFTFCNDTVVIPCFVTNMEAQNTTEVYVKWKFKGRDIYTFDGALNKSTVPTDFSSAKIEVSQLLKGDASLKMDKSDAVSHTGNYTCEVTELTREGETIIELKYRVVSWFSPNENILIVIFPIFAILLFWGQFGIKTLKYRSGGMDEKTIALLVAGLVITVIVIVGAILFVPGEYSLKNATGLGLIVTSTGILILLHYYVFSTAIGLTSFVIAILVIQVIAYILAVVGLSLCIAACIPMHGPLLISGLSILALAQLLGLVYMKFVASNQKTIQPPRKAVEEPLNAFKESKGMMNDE

B1: Clone 16 (pVxK7b-037-hum16-LC / pVxK7b-037-hum16-HC) (antibody, human IgG1, kappa, V domains shown)
VH: QVQLQESGPGLVKPSQTLSLTCTVSGYTFTNYYVFWVRQARGQRLEWIGDINPVNGDTNFNEKFKNRVTISADKSISTAYLQWSSLKASDTAMYYCARGGYTMDYWGQGTLVTVSS
VL: AIQLTQSPSSLSASVGDRVTITCRSSQSLVHSNGNTYLHWYQQKPGQAPRLLIYKVSYRFSGVPDRFSGSGSGTDFTLKISRVEAEDVGVYYCSQNTHVPRTFGQGTKVEIKR
Consider B1, for which the “mean fluorescence relative to chimera” value stood at 1 in the assay with mouse CD47; 2.1 in the assay with rat CD47; 1.1 in the assay with dog CD47; 1.1 with pig CD47; 0.9 with human CD47.

B2: Clone 9 (pVxK7b-037-hum09-LC / pVxK7b-037-hum09-HC) (antibody, human IgG1, kappa)
light: DVVMTQSPLSLPVTLGQPASISCRSSQSLVHSNGNTYLHWYQQKPGKAPKLLIYKVSYRFSGVPDRFSGSGSGTDFTLKISRVEAEDVGVYYCSQNTHVPRTFGQGTKVEIKRTVAAPSVFIFPPSDEQLKSGTASVVCLLNNFYPREAKVQWKVDNALQSGNSQESVTEQDSKDSTYSLSSTLTLSKADYEKHKVYACEVTHQGLSSPVTKSFNRGEC
heavy: not shown
notes: also called Cl 9
In the case of B2, the “mean fluorescence relative to chimera” value with mouse CD47 turned out to be 1.4; with rat CD47 it was 3.7; with dog CD47, 1; with pig CD47 it was 1.6; with human CD47, 1.2.

B3: Clone 5 (pVxK7b-037-hum05-LC / pVxK7b-037-hum05-HC) (antibody, human IgG1, kappa)
light: DIVMTQTPLSLPVTPGEPASISCRSSQSLVHSNGNTYLHWYLQKPGQSPQLLIYKVSYRFSGVPDRFSGSGSGTDFTLKISRVEAEDVGVYYCSQNTHVPRTFGQGTKVEIKRTVAAPSVFIFPPSDEQLKSGTASVVCLLNNFYPREAKVQWKVDNALQSGNSQESVTEQDSKDSTYSLSSTLTLSKADYEKHKVYACEVTHQGLSSPVTKSFNRGEC
heavy: not shown
In the case of B3, the “mean fluorescence relative to chimera” value is 1 with mouse CD47; 2.2 in the assay with rat CD47; 1.1 with dog CD47; 1.2 in the assay with pig CD47; 1 with human CD47.

B4: Clone 8 (pVxK7b-037-hum08-LC / pVxK7b-037-hum08-HC) (antibody, human IgG1, kappa)
light: DIVMTQTPLSLPVTPGEPASISCRSSQSLVHSNGNTYLHWYQQKPGKAPKLLIYKVSYRFSGVPDRFSGSGSGTDFTLKISRVEAEDVGVYYCSQNTHVPRTFGQGTKVEIKRTVAAPSVFIFPPSDEQLKSGTASVVCLLNNFYPREAKVQWKVDNALQSGNSQESVTEQDSKDSTYSLSSTLTLSKADYEKHKVYACEVTHQGLSSPVTKSFNRGEC
heavy: not shown
As to B4, the “mean fluorescence relative to chimera” value came to 0.7 with mouse CD47; 1.2 with rat CD47; 0.8 in the assay with dog CD47; 0.8 in the assay with pig CD47; 0.7 with human CD47.

B5: Clone 10 (pVxK7b-037-hum10-LC / pVxK7b-037-hum10-HC) (antibody, human IgG1, kappa, V domains shown)
VH: QVQLQESGPGLVKPSQTLSLTCTVSGYTFTNYYVFWVRQARGQRLEWIGDINPVNGDTNFNEKFKNRLTISKDTSKNQVVLTMTNMDPVDTATYYCARGGYTMDYWGQGTLVTVSS
VL: DIVMTQTPLSLPVTPGEPASISCRSSQSLVHSNGNTYLHWYLQKPGQSPQLLIYKVSYRFSGVPDRFSGSGSGTDFTLKISRVEAEDVGVYYCSQNTHVPRTFGQGTKVEIKR
As to B5, the “mean fluorescence relative to chimera” value came out at 1.2 in the assay with mouse CD47; 2.9 with rat CD47; 1.1 with dog CD47; 1.5 in the assay with pig CD47; 1.1 with human CD47.

B6: Clone 24 (pVxK7b-037-hum24-LC / pVxK7b-037-hum24-HC) (antibody, human IgG1, kappa, V domains shown)
VH: QVQLQESGPGLVKPGATVKISCKVSGYTFTNYYVFWVRQARGQRLEWIGDINPVNGDTNFNEKFKNRVTITADKSTSTAYMELSSLRSEDTAVYYCARGGYTMDYWGQGTLVTVSS
VL: AIQLTQSPSSLSASVGDRVTITCRSSQSLVHSNGNTYLHWYQQKPGQAPRLLIYKVSYRFSGVPSRFSGSGSGTEFTLTISSLQPDDFATYYCSQNTHVPRTFGQGTKVEIKR
notes: also called Cl 24
In the case of B6, the “mean fluorescence relative to chimera” value with mouse CD47 amounted to 0.7; with rat CD47, 1.2; with dog CD47 it was 1; with pig CD47, 1.1; with human CD47 it was 0.8.

B7: Clone 4 (pVxK7b-037-hum04-LC / pVxK7b-037-hum04-HC) (antibody, human IgG1, kappa, V domains shown)
VH: QVQLQESGPGLVKPSQTLSLTCTVSGYTFTNYYVFWVRQAPGKGLEWVSDINPVNGDTNFNEKFKNRVTISVDTSKNQFSLKLSSVTAADTAVYYCARGGYTMDYWGQGTLVTVSS
VL: DIQMTQSPSSLSASVGDRVTITCRSSQSLVHSNGNTYLHWYLQKPGQSPQLLIYKVSYRFSGIPARFSGSGSGTEFTLTISSLQSEDFAVYYCSQNTHVPRTFGQGTKVEIKR
With B7, the “mean fluorescence relative to chimera” value amounted to 0.6 in the assay with mouse CD47; 1 with rat CD47; 0.6 in the assay with dog CD47; 0.6 in the assay with pig CD47; 0.6 with human CD47.

B8: Clone 7 (pVxK7b-037-hum07-LC / pVxK7b-037-hum07-HC) (antibody, human IgG1, kappa, V domains shown)
VH: QVQLQESGPGLVKPGATVKISCKVSGYTFTNYYVFWVRQARGQRLEWIGDINPVNGDTNFNEKFKNRVTITADKSTSTAYMELSSLRSEDTAVYYCARGGYTMDYWGQGTLVTVSS
VL: DIVMTQTPLSLPVTPGEPASISCRSSQSLVHSNGNTYLHWYLQKPGQSPQLLIYKVSYRFSGVPDRFSGSGSGTDFTLKISRVEAEDVGVYYCSQNTHVPRTFGQGTKVEIKR
As for B8, the “mean fluorescence relative to chimera” value amounted to 0.4 with mouse CD47; 0.8 with rat CD47; 0.8 with dog CD47; 0.9 with pig CD47; 0.5 with human CD47.

B9: Clone 11 (pVxK7b-037-hum11-LC / pVxK7b-037-hum11-HC) (antibody, human IgG1, kappa, V domains shown)
VH: QVQLQESGPGLVKPGATVKISCKVSGYTFTNYYVFWVRQARGQRLEWIGDINPVNGDTNFNEKFKNRVTITADKSTSTAYMELSSLRSEDTAVYYCARGGYTMDYWGQGTLVTVSS
VL: EIVLTQSPATLSVSPGERATLSCRSSQSLVHSNGNTYLHWYQQKPGQAPRLLIYKVSYRFSGVPSRFSGSGSGTDFTFTISSLEAEDAATYYCSQNTHVPRTFGQGTKVEIKR
notes: also called Cl 11
For the molecule B9, the “mean fluorescence relative to chimera” value with mouse CD47 came out at 0.7; in the assay with rat CD47, 1.2; in the assay with dog CD47, 0.8; with pig CD47, 1.2; with human CD47 it was 0.8.

B10: Clone 12 (pVxK7b-037-hum12-LC / pVxK7b-037-hum12-HC) (antibody, human IgG1, kappa, V domains shown)
VH: QVQLQESGPGLVKPGATVKISCKVSGYTFTNYYVFWVRQARGQRLEWIGDINPVNGDTNFNEKFKNRVTITADKSTSTAYMELSSLRSEDTAVYYCARGGYTMDYWGQGTLVTVSS
VL: DIVMTQTPLSLPVTPGEPASISCRSSQSLVHSNGNTYLHWYQQKPGKAPKLLIYKVSYRFSGVPDRFSGSGSGTDFTLKISRVEAEDVGVYYCSQNTHVPRTFGQGTKVEIKR
With B10, the “mean fluorescence relative to chimera” value with mouse CD47 was determined as 0.6; with rat CD47, 1.3; with dog CD47 it was 0.9; with pig CD47, 1.4; with human CD47, 0.8.
